# Test results taken from patent US20190367625A1, “AMHRII-BINDING COMPOUNDS FOR PREVENTING OR TREATING CANCERS” (GAMAMABS PHARMA, priority 2017, published 2019).
# “Also recorded” adds a separate entry of the source.
# What was measured:
# [1] = Body weight and tolerability in LI1097 tumor-bearing mice; type: in vivo; details: for body weight loss observed in treated mice: mean; for tolerability / toxic events (in words): LI1097 tumor-bearing mice, antibody 20 and 50 mg/kg i.v., sorafenib 50 mg/kg p.o.
# Description: When individual mouse has a body weight loss ≥20%, the mouse will be given dosing holiday(s) until its body weight recovers to the baseline.
# All the procedures related to animal handling, care, and the treatment in this study were performed according to guidelines approved by the Institutional Animal Care and Use Committee (IACUC) of CrownBio following the guidance of the Association for Assessment and Accreditation of Laboratory Animal Care (AAALAC). At the time of routine monitoring, the animals were checked for any effects of tumor growth on normal behavior such as mobility, food and water consumption (by looking only), body weight gain/loss, eye/hair matting and any other abnormal effect. Death and observed clinical signs were recorded on the basis of the numbers of animals within each subset.
# Under following conditions, the in-life experiment of individual animal or whole groups will be terminated, by humane euthanization, prior to death, or before reaching a comatose state. • In a continuing deteriorating condition with severe clinical signs of severe distress and/or pain, inaccessible to adequate food or water; • Significant body mass (emaciated) (>20%); • Individual mouse with tumor size exceeding 3000 mm^3 or MTV>2000 mm^3.
# [2] = system: HuPrime® HCC xenograft model LI1097; assay: Efficacy study in HuPrime HCC xenograft model LI1097 (tumor volume, TGI, T/C, T-C); type: in vivo, BALB/c nude mice; details: for Tumor Volume: mean ± SEM; for anti-tumor activity against HCC xenograft (in words): LI1097, compared with sorafenib
# Source text: To evaluate preclinically the in vivo efficacy of GamaMabss' anti-AMHR2 monoclonal antibody, named GM102 in the treatment of Huprime® HCC xenograft model LI1097 in Balb/C nude mice. The model LI1097 was selected after a screening for AMHR2 transcription processed by CrownBio, using RNAseq (transcriptome sequencing). Further, AMHR2 membranous protein expression of this model was confirmed by Institut Curie, France, using IHC.
# • Strain: BALB/c Nude • Age: 7-8 weeks (Treatment starting) • Gender: female • Total #: 32 mice plus spare
# • HuPrime® Liver cancer model L11097 derived from a HCC patient was selected for this efficacy study. This model reached 1000 mm^3 in 20-25 days post inoculation.
# • Product identification: GamaMabs's Ab (3C23K) • Manufacturer: GamaMabs Pharma • Lot number: R18H2-LP01 • Batch: 04GAM140513API • Quantity needed: 255 mg based on animal BW of 25 g with 50% spare • Package and storage condition: [30 ml/tube], 30 ml, [2-8° C.] • Concentration: 10.1 g/L • Product identification: Sorafenib • Manufacturer: Melonepharma • Lot number: D1111A • Quantity needed: 300 mg based on animal BW of 25 g with 50% spare • Package and storage condition: 400 mg, [RT]
# Tumor fragments from stock mice inoculated with selected primary human cancer tissues were harvested and used for inoculation into BALB/c nude mice. Each mouse was inoculated subcutaneously at the right flank with primary human HCC model LI1097 fragment (R12P4, 2-4 mm in diameter) for tumor development on Jun. 9, 2015. The parent mouse number was #80150. #80151 and #80153. The mice were grouped when the average tumor size reached about 145 mm^3 on Jun. 24, 2015. Mice were allocated randomly into 4 experimental groups according to their tumor sizes. Each group consisted of 8 mice, 4 mice per cage. The day was denoted as day 0. The test articles were administered to the tumor-bearing mice from day 0 (Jun. 24, 2015) through day 27 (Jul. 21, 2015) according to pre-determined regimen shown in Section 1.1 Experimental Design.
# Tumor size were measured twice weekly in two dimensions using a caliper, and the volume is expressed in mm^3 using the formula: TV=0.5 a×b^2, where a and b are the long and short diameters of the tumor, respectively. The tumor size is then used for calculations of TGI, T/C, and T-C values according to the description in the Table 2 in Abbreviations.
# The study was ended after 28 days treatment and mice were sacrificed.
# Summary statistics, including mean and the standard error of the mean (SEM), are provided for the tumor volume of each group at each time point. Statistical analysis of difference in tumor volume among the groups was evaluated using a one-way ANOVA followed by multiple comparisons using Games-Howell. All data were analyzed using SPSS 16.0. P<0.05 was considered to be statistically significant.
# [3] = molecular target: T1, AMHRII (form used for the Kd not stated) (human, UniProt Q16671 18-149, limits assumed)
# T1 construct: Neither the construct nor the assay behind the Kd is described
# [4] = system: Champions TumorGraft® model CTG-0401 (human colorectal cancer); assay: Efficacy study in model CTG-0401 of human colorectal cancer; type: in vivo, Athymic Nude-Foxn1nu mice; details: 20 mg/kg IP BIWx4; comparator Irinotecan 100 mg/kg IP Q7Dx3; listed as GM102
# Description: Stock mice (Athymic Nude-Foxn1^nu from Envigo) were implanted with tumor fragments from Champions TumorGraft® model CTG-0401. After the tumors reached 1000-1500 mm^3, they were harvested and the tumor fragments were implanted SC in the left flank of the female study mice. Each animal was implanted with a specific passage lot: passage 6 for CTG-0401. Tumor growth was monitored twice a week using digital calipers and the tumor volume (TV) was calculated using the formula (0.52×[length×width^2]). After the tumor volume reached 175±7 mm^3, mice were selected based on their tumor size and were randomly allocated into 4 groups of 12 animals per group (Day 0). After the initiation of dosing on Day 0, animals were weighed twice per week using a digital scale and TV was measured twice per week and also on the final day of study. The study was terminated when the mean tumor volume in the vehicle control group reached 1500 mm^3 or up to Day 60, whichever occurred first.
# [5] = 50 mg/kg, QD × 4 weeks, p.o., day 13
# [6] = 20 mg/kg, BIW × 4 weeks, i.v., day 13
# [7] = 50 mg/kg, BIW × 4 weeks, i.v., day 13
# T1 sequence (Q16671 18-149 limits assumed): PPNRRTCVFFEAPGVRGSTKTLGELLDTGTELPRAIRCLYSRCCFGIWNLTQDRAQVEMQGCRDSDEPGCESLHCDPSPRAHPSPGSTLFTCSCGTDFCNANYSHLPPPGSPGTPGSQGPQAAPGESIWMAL
molecule,measurement,setting,value
"CNC(=O)c1cc(Oc2ccc(NC(=O)Nc3ccc(Cl)c(C(F)(F)F)c3)cc2)ccn1 [Sorafenib, reference compound]",body weight change at study termination,"[1]; 50 mg/kg, QD × 4 weeks, p.o.",−7.63%
same,mean maximum body weight loss,"[1]; 50 mg/kg, QD × 4 weeks, p.o., day 27 of treatment",7.63%
same,body weight loss observed in treated mice,"[1]; 50 mg/kg, QD × 4 weeks, p.o.",7%
same,body weight loss observed in treated mice,"[1]; 50 mg/kg, QD × 4 weeks, p.o., listed as sorafenib",up to 7%
same,T-C (days) at 1000 mm^3,"[2]; 50 mg/kg, QD × 4 weeks, p.o.",8 days
same,Tumor Volume,"[2]; 50 mg/kg, QD × 4 weeks, p.o., day 0",145.18 ± 16.97 mm^3
same,Tumor Volume,"[2]; 50 mg/kg, QD × 4 weeks, p.o., day 2",321.35 ± 45.66 mm^3
same,Tumor Volume,"[2]; 50 mg/kg, QD × 4 weeks, p.o., day 6",493.84 ± 65.13 mm^3
same,Tumor Volume,"[2]; 50 mg/kg, QD × 4 weeks, p.o., day 9",695.20 ± 66.81 mm^3
same,T/C (%),[2]; [5],35.1%
same,TGI (%),[2]; [5],64.9%
same,Tumor Volume,[2]; [5],891.50 ± 103.33 mm^3
same,Tumor Volume,"[2]; 50 mg/kg, QD × 4 weeks, p.o., day 16",1135.40 ± 133.62 mm^3
same,Tumor Volume,"[2]; 50 mg/kg, QD × 4 weeks, p.o., day 20",1478.84 ± 189.62 mm^3
same,Tumor Volume,"[2]; 50 mg/kg, QD × 4 weeks, p.o., day 23",1627.4 ± 202.91 mm^3
same,Tumor Volume,"[2]; 50 mg/kg, QD × 4 weeks, p.o., day 27",1829.66 ± 256.4 mm^3
"3C23K anti-AMHRII monoclonal antibody (antibody, human IgG1, kappa, V domains shown, Humanized antibody; also called GM102; GamaMabs's Ab) VH: QVRLVQSGAEVKKPGASVKVSCKASGYTFTSYHIHWVRQAPGQRLEWMGWIYPGDDSTKYSQKFQGRVTITRDTSASTAYMELSSLRSEDTAVYYCTRGDRFAYWGQGTLVTVSS VL: DIQMTQSPSTLSASVGDRVTITCRASSSVRYIAWYQQKPGKAPKLLTYPTSSLKSGVPSRFSGSGSGTEFTLTISSLQPDDFATYYCLQWSSYPWTFGGGTKVEIKR",Kd,[3],0.0553 nM
"3C23K: humanized anti-AMHRII monoclonal antibody; VH SEQ ID NO 19, VL SEQ ID NO 36 (antibody, V domains shown, Synthetic 3C23K/3C23; Synthetic 3C23K) VH: QVRLVQSGAEVKKPGASVKVSCKASGYTFTSYHIHWVRQAPGQRLEWMGWIYPGDDSTKYSQKFQGRVTITRDTSASTAYMELSSLRSEDTAVYYCTRGDRFAYWGQGTLVTVSS VL: DIQMTQSPSTLSASVGDRVTITCRASSSVRYIAWYQQKPGKAPKLLTYPTSSLKSGVPSRFSGSGSGTEFTLTISSLQPDDFATYYCLQWSSYPWTFGGGTKVEIK",body weight change at study termination,"[1]; 20 mg/kg, BIW × 4 weeks, i.v.",2.68%
same,body weight change at study termination,"[1]; 50 mg/kg, BIW × 4 weeks, i.v.",-0.38%
same,tolerability / toxic events (in words),[1],no detectable toxic event
same,tolerability / toxic events (in words),[1]; listed as GM102,not accompanied by any toxic event
same,tolerability / toxic events (in words),[1]; listed as GamaMabs's Ab,No animal death or significant body weight loss; also recorded: well tolerated
same,T-C (days) at 1000 mm^3,"[2]; 20 mg/kg, BIW × 4 weeks, i.v.",3 days
same,Tumor Volume,"[2]; 20 mg/kg, BIW × 4 weeks, i.v., day 0",145.15 ± 16.79 mm^3
same,Tumor Volume,"[2]; 20 mg/kg, BIW × 4 weeks, i.v., day 2",358.57 ± 51.86 mm^3
same,Tumor Volume,"[2]; 20 mg/kg, BIW × 4 weeks, i.v., day 6",665.09 ± 85.00 mm^3
same,Tumor Volume,"[2]; 20 mg/kg, BIW × 4 weeks, i.v., day 9",952.12 ± 171.45 mm^3
same,T/C (%),[2]; [6],48.7%
same,TGI (%),"[2]; 20 mg/kg, BIW × 4 weeks, i.v., day 13, listed as GamaMabs's Ab",51.3%
same,Tumor Volume,[2]; [6],1179.90 ± 232.26 mm^3
same,Tumor Volume,"[2]; 20 mg/kg, BIW × 4 weeks, i.v., day 16",1479.51 ± 292.49 mm^3
same,Tumor Volume,"[2]; 20 mg/kg, BIW × 4 weeks, i.v., day 20",1973.13 ± 372.07 mm^3
same,Tumor Volume,"[2]; 20 mg/kg, BIW × 4 weeks, i.v., day 23",1814.59 ± 231.17 mm^3
same,Tumor Volume,"[2]; 20 mg/kg, BIW × 4 weeks, i.v., day 27",2081.67 ± 213.28 mm^3
same,T-C (days) at 1000 mm^3,"[2]; 50 mg/kg, BIW × 4 weeks, i.v.",5 days
same,Tumor Volume,"[2]; 50 mg/kg, BIW × 4 weeks, i.v., day 0",145.24 ± 16.38 mm^3
same,Tumor Volume,"[2]; 50 mg/kg, BIW × 4 weeks, i.v., day 2",297.78 ± 46.32 mm^3
same,Tumor Volume,"[2]; 50 mg/kg, BIW × 4 weeks, i.v., day 6",532.71 ± 104.17 mm^3
same,Tumor Volume,"[2]; 50 mg/kg, BIW × 4 weeks, i.v., day 9",751.81 ± 176.15 mm^3
same,T/C (%),[2]; [7],45.7%
same,TGI (%),"[2]; 50 mg/kg, BIW × 4 weeks, i.v., day 13, listed as GamaMabs's Ab",54.3%
same,Tumor Volume,[2]; [7],1117.12 ± 302.85 mm^3
same,Tumor Volume,"[2]; 50 mg/kg, BIW × 4 weeks, i.v., day 16",1476.74 ± 407.93 mm^3
same,Tumor Volume,"[2]; 50 mg/kg, BIW × 4 weeks, i.v., day 20",1602.61 ± 481.85 mm^3
same,Tumor Volume,"[2]; 50 mg/kg, BIW × 4 weeks, i.v., day 23",1148.22 ± 381.49 mm^3
same,Tumor Volume,"[2]; 50 mg/kg, BIW × 4 weeks, i.v., day 27",1454.47 ± 479.27 mm^3
same,anti-tumor activity against HCC xenograft (in words),[2],of the same order of magnitude as sorafenib
same,anti-tumor activity against HCC xenograft (in words),[2]; listed as GamaMabs's Ab,close to that induced by sorafenib
same,"in vivo anti-tumor effect against AMHRII-expressing human colorectal tumor (in words, FIG. 10)",[4],efficient in vivo anti-tumor effect; also recorded: indistinguishable from the anti-tumor effect of the mainly used anti-colon cancer molecule Irinotecan
